Laboratory results from patent US20240279278A1, “NMU RECEPTOR 2 AGONISTS” (Boehringer Ingelheim International GmbH, priority 2023, published 2024).
Starred links: 1 amine or outer side, 2 acyl side, 3 side chain; linkers in the order of their positions; H or OH if unused. Non-standard residues stand in square brackets, D forms with d. *: point of attachment. Pipz(1-CH2CO,4-CH2CH2NH) = O=C(CN1CCN(CCN[*:1])CC1)[*:2]; C18 diacid = O=C(O)CCCCCCCCCCCCCCCCC(=O)*; γGlu = O=C(O)[C@H](CCC(=O)[*:2])N[*:1]; 2Pal = N[C@@H](Cc1ccccn1)C(=O)O; 3Pal = N[C@@H](Cc1cccnc1)C(=O)O; NMeL = CN[C@@H](CC(C)C)C(=O)O; NMeA = CN[C@@H](C)C(=O)O; Nle = CCCC[C@H](N)C(=O)O; Sar = CNCC(=O)O

T1: human neuromedin U receptor 1 (human, UniProt Q9HB89 24-426)
T1 sequence (looked up): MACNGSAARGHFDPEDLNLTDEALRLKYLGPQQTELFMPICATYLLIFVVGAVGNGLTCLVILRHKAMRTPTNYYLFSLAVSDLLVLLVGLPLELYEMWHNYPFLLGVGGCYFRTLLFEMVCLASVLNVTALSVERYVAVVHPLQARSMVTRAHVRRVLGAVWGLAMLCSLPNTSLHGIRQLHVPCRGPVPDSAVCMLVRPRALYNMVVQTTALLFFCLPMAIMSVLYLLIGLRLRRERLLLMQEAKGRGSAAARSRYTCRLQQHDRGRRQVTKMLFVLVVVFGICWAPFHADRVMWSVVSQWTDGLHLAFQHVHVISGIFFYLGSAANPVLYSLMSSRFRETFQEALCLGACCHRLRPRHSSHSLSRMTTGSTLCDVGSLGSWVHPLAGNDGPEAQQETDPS


target: T1, human neuromedin U receptor 1; assay: cell-based or functional assay

EC50 (hNMUR1) buffer | Binder
1.3 µM | EEEXXXXXXXXXXXXXXXXYFLXRARG (HELM PEPTIDE1{[O=C(O)CCCCCCCCCCCCCCCCC(=O)[*:2]].[gGlu].[gGlu].[gGlu].[Sar].[Sar].[Sar].[Sar].[Sar].[Sar].[Sar].[Sar].[Sar].[Sar].[Sar].[Sar].[Sar].[Sar].[Sar].[O=C(CN1CCN(CCN[*:1])CC1)[*:2]].Y.F.[meL].[Nle].[meR].[meA].R.G.[am]}$$$$V2.0; SMILES CCCC[C@H](NC(=O)[C@H](CC(C)C)N(C)C(=O)[C@H](Cc1ccccc1)NC(=O)[C@H](Cc1ccc(O)cc1)NC(=O)CN1CCN(CCNC(=O)CN(C)C(=O)CN(C)C(=O)CN(C)C(=O)CN(C)C(=O)CN(C)C(=O)CN(C)C(=O)CN(C)C(=O)CN(C)C(=O)CN(C)C(=O)CN(C)C(=O)CN(C)C(=O)CN(C)C(=O)CN(C)C(=O)CN(C)C(=O)CN(C)C(=O)CC[C@H](NC(=O)CC[C@H](NC(=O)CC[C@H](NC(=O)CCCCCCCCCCCCCCCCC(=O)O)C(=O)O)C(=O)O)C(=O)O)CC1)C(=O)N(C)[C@@H](CCCNC(=N)N)C(=O)N(C)[C@@H](C)C(=O)N[C@@H](CCCNC(=N)N)C(=O)NCC(N)=O) [C18DA-gGlu3-Sar15-AEPipAc-Tyr-Phe-NMeLeu-Nle-NMeArg-NMeAla-Arg-Gly-NH2]
> 1 µM | EEEXXXXXXXXXXXXXXXXYFLXKARG (HELM PEPTIDE1{[O=C(O)CCCCCCCCCCCCCCCCCCC(=O)[*:2]].[gGlu].[gGlu].[gGlu].[Sar].[Sar].[Sar].[Sar].[Sar].[Sar].[Sar].[Sar].[Sar].[Sar].[Sar].[Sar].[Sar].[Sar].[Sar].[O=C(CN1CCN(CCN[*:1])CC1)[*:2]].Y.F.[meL].[Nle].K.[meA].R.G.[am]}$$$$V2.0; SMILES CCCC[C@H](NC(=O)[C@H](CC(C)C)N(C)C(=O)[C@H](Cc1ccccc1)NC(=O)[C@H](Cc1ccc(O)cc1)NC(=O)CN1CCN(CCNC(=O)CN(C)C(=O)CN(C)C(=O)CN(C)C(=O)CN(C)C(=O)CN(C)C(=O)CN(C)C(=O)CN(C)C(=O)CN(C)C(=O)CN(C)C(=O)CN(C)C(=O)CN(C)C(=O)CN(C)C(=O)CN(C)C(=O)CN(C)C(=O)CN(C)C(=O)CC[C@H](NC(=O)CC[C@H](NC(=O)CC[C@H](NC(=O)CCCCCCCCCCCCCCCCCCC(=O)O)C(=O)O)C(=O)O)C(=O)O)CC1)C(=O)N[C@@H](CCCCN)C(=O)N(C)[C@@H](C)C(=O)N[C@@H](CCCNC(=N)N)C(=O)NCC(N)=O) [C20DA-gGlu3-Sar15-AEPipAc-Tyr-Phe-NMeLeu-Nle-Lys-NMeAla-Arg-Gly-NH2]
0.2 µM | EEEXXXXXXXXXXXXXXXXYFLXRPRG (HELM PEPTIDE1{[O=C(O)CCCCCCCCCCCCCCCCC(=O)[*:2]].[gGlu].[gGlu].[gGlu].[Sar].[Sar].[Sar].[Sar].[Sar].[Sar].[Sar].[Sar].[Sar].[Sar].[Sar].[Sar].[Sar].[Sar].[Sar].[O=C(CN1CCN(CCN[*:1])CC1)[*:2]].Y.F.[meL].[Nle].[meR].P.R.G.[am]}$$$$V2.0; SMILES CCCC[C@H](NC(=O)[C@H](CC(C)C)N(C)C(=O)[C@H](Cc1ccccc1)NC(=O)[C@H](Cc1ccc(O)cc1)NC(=O)CN1CCN(CCNC(=O)CN(C)C(=O)CN(C)C(=O)CN(C)C(=O)CN(C)C(=O)CN(C)C(=O)CN(C)C(=O)CN(C)C(=O)CN(C)C(=O)CN(C)C(=O)CN(C)C(=O)CN(C)C(=O)CN(C)C(=O)CN(C)C(=O)CN(C)C(=O)CN(C)C(=O)CC[C@H](NC(=O)CC[C@H](NC(=O)CC[C@H](NC(=O)CCCCCCCCCCCCCCCCC(=O)O)C(=O)O)C(=O)O)C(=O)O)CC1)C(=O)N(C)[C@@H](CCCNC(=N)N)C(=O)N1CCC[C@H]1C(=O)N[C@@H](CCCNC(=N)N)C(=O)NCC(N)=O) [C18DA-gGlu3-Sar15-AEPipAc-Tyr-Phe-NMeLeu-Nle-NMeArg-Pro-Arg-Gly-NH2]

The next lines start with the binder.

Binder | EC50 (hNMUR1) buffer
{C18 diacid}-[γGlu][γGlu][γGlu][Sar][Sar][Sar][Sar][Sar][Sar][Sar][Sar][Sar][Sar][Sar][Sar][Sar][Sar][Sar][Pipz(1-CH2CO,4-CH2CH2NH)]YF[NMeL][Nle][3Pal][NMeA]RG-NH2 (SMILES CCCC[C@H](NC(=O)[C@H](CC(C)C)N(C)C(=O)[C@H](Cc1ccccc1)NC(=O)[C@H](Cc1ccc(O)cc1)NC(=O)CN1CCN(CCNC(=O)CN(C)C(=O)CN(C)C(=O)CN(C)C(=O)CN(C)C(=O)CN(C)C(=O)CN(C)C(=O)CN(C)C(=O)CN(C)C(=O)CN(C)C(=O)CN(C)C(=O)CN(C)C(=O)CN(C)C(=O)CN(C)C(=O)CN(C)C(=O)CN(C)C(=O)CC[C@H](NC(=O)CC[C@H](NC(=O)CC[C@H](NC(=O)CCCCCCCCCCCCCCCCC(=O)O)C(=O)O)C(=O)O)C(=O)O)CC1)C(=O)N[C@@H](Cc1cccnc1)C(=O)N(C)[C@@H](C)C(=O)N[C@@H](CCCNC(=N)N)C(=O)NCC(N)=O) [C18DA-gGlu3-Sar15-AEPipAc-Tyr-Phe-NMeLeu-Nle-3Pal-NMeAla-Arg-Gly-NH2] | > 1 µM
EEEXXXXXXXXXXXXXXXXYFLXHPRG (HELM PEPTIDE1{[O=C(O)CCCCCCCCCCCCCCCCC(=O)[*:2]].[gGlu].[gGlu].[gGlu].[Sar].[Sar].[Sar].[Sar].[Sar].[Sar].[Sar].[Sar].[Sar].[Sar].[Sar].[Sar].[Sar].[Sar].[Sar].[O=C(CN1CCN(CCN[*:1])CC1)[*:2]].Y.F.[meL].[Nle].H.P.R.G.[am]}$$$$V2.0; SMILES CCCC[C@H](NC(=O)[C@H](CC(C)C)N(C)C(=O)[C@H](Cc1ccccc1)NC(=O)[C@H](Cc1ccc(O)cc1)NC(=O)CN1CCN(CCNC(=O)CN(C)C(=O)CN(C)C(=O)CN(C)C(=O)CN(C)C(=O)CN(C)C(=O)CN(C)C(=O)CN(C)C(=O)CN(C)C(=O)CN(C)C(=O)CN(C)C(=O)CN(C)C(=O)CN(C)C(=O)CN(C)C(=O)CN(C)C(=O)CN(C)C(=O)CC[C@H](NC(=O)CC[C@H](NC(=O)CC[C@H](NC(=O)CCCCCCCCCCCCCCCCC(=O)O)C(=O)O)C(=O)O)C(=O)O)CC1)C(=O)N[C@@H](Cc1c[nH]cn1)C(=O)N1CCC[C@H]1C(=O)N[C@@H](CCCNC(=N)N)C(=O)NCC(N)=O) [C18DA-gGlu3-Sar15-AEPipAc-Tyr-Phe-NMeLeu-Nle-His-Pro-Arg-Gly-NH2] | > 1 µM
{C18 diacid}-[γGlu][γGlu][γGlu][Sar][Sar][Sar][Sar][Sar][Sar][Sar][Sar][Sar][Sar][Sar][Sar][Sar][Sar][Sar][Pipz(1-CH2CO,4-CH2CH2NH)]YF[NMeL][Nle][3Pal]PRG-NH2 (SMILES CCCC[C@H](NC(=O)[C@H](CC(C)C)N(C)C(=O)[C@H](Cc1ccccc1)NC(=O)[C@H](Cc1ccc(O)cc1)NC(=O)CN1CCN(CCNC(=O)CN(C)C(=O)CN(C)C(=O)CN(C)C(=O)CN(C)C(=O)CN(C)C(=O)CN(C)C(=O)CN(C)C(=O)CN(C)C(=O)CN(C)C(=O)CN(C)C(=O)CN(C)C(=O)CN(C)C(=O)CN(C)C(=O)CN(C)C(=O)CN(C)C(=O)CC[C@H](NC(=O)CC[C@H](NC(=O)CC[C@H](NC(=O)CCCCCCCCCCCCCCCCC(=O)O)C(=O)O)C(=O)O)C(=O)O)CC1)C(=O)N[C@@H](Cc1cccnc1)C(=O)N1CCC[C@H]1C(=O)N[C@@H](CCCNC(=N)N)C(=O)NCC(N)=O) [C18DA-gGlu3-Sar15-AEPipAc-Tyr-Phe-NMeLeu-Nle-3Pal-Pro-Arg-Gly-NH2] | > 1 µM
EEEXXXXXXXXXXXXXXXXYFLXHARG (HELM PEPTIDE1{[O=C(O)CCCCCCCCCCCCCCCCC(=O)[*:2]].[gGlu].[gGlu].[gGlu].[Sar].[Sar].[Sar].[Sar].[Sar].[Sar].[Sar].[Sar].[Sar].[Sar].[Sar].[Sar].[Sar].[Sar].[Sar].[O=C(CN1CCN(CCN[*:1])CC1)[*:2]].Y.F.[meL].[Nle].H.[meA].R.G.[am]}$$$$V2.0; SMILES CCCC[C@H](NC(=O)[C@H](CC(C)C)N(C)C(=O)[C@H](Cc1ccccc1)NC(=O)[C@H](Cc1ccc(O)cc1)NC(=O)CN1CCN(CCNC(=O)CN(C)C(=O)CN(C)C(=O)CN(C)C(=O)CN(C)C(=O)CN(C)C(=O)CN(C)C(=O)CN(C)C(=O)CN(C)C(=O)CN(C)C(=O)CN(C)C(=O)CN(C)C(=O)CN(C)C(=O)CN(C)C(=O)CN(C)C(=O)CN(C)C(=O)CC[C@H](NC(=O)CC[C@H](NC(=O)CC[C@H](NC(=O)CCCCCCCCCCCCCCCCC(=O)O)C(=O)O)C(=O)O)C(=O)O)CC1)C(=O)N[C@@H](Cc1c[nH]cn1)C(=O)N(C)[C@@H](C)C(=O)N[C@@H](CCCNC(=N)N)C(=O)NCC(N)=O) [C18DA-gGlu3-Sar15-AEPipAc-Tyr-Phe-NMeLeu-Nle-His-NMeAla-Arg-Gly-NH2] | > 1 µM
{C18 diacid}-[γGlu][γGlu][γGlu][Sar][Sar][Sar][Sar][Sar][Sar][Sar][Sar][Sar][Sar][Sar][Sar][Sar][Sar][Sar][Pipz(1-CH2CO,4-CH2CH2NH)]YF[NMeL][Nle][2Pal]PRG-NH2 (SMILES CCCC[C@H](NC(=O)[C@H](CC(C)C)N(C)C(=O)[C@H](Cc1ccccc1)NC(=O)[C@H](Cc1ccc(O)cc1)NC(=O)CN1CCN(CCNC(=O)CN(C)C(=O)CN(C)C(=O)CN(C)C(=O)CN(C)C(=O)CN(C)C(=O)CN(C)C(=O)CN(C)C(=O)CN(C)C(=O)CN(C)C(=O)CN(C)C(=O)CN(C)C(=O)CN(C)C(=O)CN(C)C(=O)CN(C)C(=O)CN(C)C(=O)CC[C@H](NC(=O)CC[C@H](NC(=O)CC[C@H](NC(=O)CCCCCCCCCCCCCCCCC(=O)O)C(=O)O)C(=O)O)C(=O)O)CC1)C(=O)N[C@@H](Cc1ccccn1)C(=O)N1CCC[C@H]1C(=O)N[C@@H](CCCNC(=N)N)C(=O)NCC(N)=O) [C18DA-gGlu3-Sar15-AEPipAc-Tyr-Phe-NMeLeu-Nle-2Pal-Pro-Arg-Gly-NH2] | > 1 µM
